Earlier results, collected in article PMC12030383, “Pharmacokinetics, Pharmacodynamics, and Bioequivalence of Test Insulin Glargine Versus Reference Preparation (Lantus®) in Healthy Male Volunteers—By Euglycemic Clamp Technique” (Pharmaceutics, 2025).

Experimental: After subcutaneous injection, the acidic solution in insulin is neutralized so that the insulin analog forms a precipitated microscopic deposit at the injection site, thus allowing for a slow and continuous release of insulin glargine from the injection site into the bloodstream, resulting in a smooth and predictable blood concentration without peaks for up to 24 h. Therefore, insulin glargine can be administered ...

In the case of Insulin glargine, the “solubility in acidic solutions” value (acidic solutions) is given as “completely soluble” and the “solubility in neutral solutions” value (neutral solutions) is given as “low solubility”.
